Data published in US20130330802A1.

Legend:
[1] = biological target: mannose 6-phosphate (M6P) receptor on cultured human fibroblasts (CCD-1076SK) (human) (UniProt P11717); assay: cell-based or functional assay
[2] = biological target: His-tagged-hMPR9 (domain 9 of human mannose-6-phosphate receptor with C-terminal His-tag) (human) (UniProt P11717); assay: SPR (Biacore T100), His-tagged-hMPR9 on NTA chip, rhI2S as analyte
[3] = biological target: mannose 6-phosphate (M6P) receptor on cultured human fibroblasts (CCD-1076SK) (human), P11717; assay: cell-based or functional assay
[4] = biological target: His-tagged-hMPR9 (domain 9 of human mannose-6-phosphate receptor with C-terminal His-tag) (human) (UniProt P11717); assay: SPR (Biacore T100), His-tagged-hMPR9 on NTA chip, rhI2S as analyte; low end of range over lots 1-7
[5] = biological target: His-tagged-hMPR9 (domain 9 of human mannose-6-phosphate receptor with C-terminal His-tag) (human) (UniProt P11717); assay: SPR (Biacore T100), His-tagged-hMPR9 on NTA chip, rhI2S as analyte; high end of range over lots 1-7
[6] = biological target: His-tagged-hMPR9 (domain 9 of human mannose-6-phosphate receptor with C-terminal His-tag) (human) (UniProt P11717); assay: SPR (Biacore T100), His-tagged-hMPR9 on NTA chip, rhI2S as analyte; average of lots 1-7

mannose 6-phosphate (M6P) receptor on cultured human fibroblasts (CCD-1076SK) (human), P11717, sequence (P11717 41-2491): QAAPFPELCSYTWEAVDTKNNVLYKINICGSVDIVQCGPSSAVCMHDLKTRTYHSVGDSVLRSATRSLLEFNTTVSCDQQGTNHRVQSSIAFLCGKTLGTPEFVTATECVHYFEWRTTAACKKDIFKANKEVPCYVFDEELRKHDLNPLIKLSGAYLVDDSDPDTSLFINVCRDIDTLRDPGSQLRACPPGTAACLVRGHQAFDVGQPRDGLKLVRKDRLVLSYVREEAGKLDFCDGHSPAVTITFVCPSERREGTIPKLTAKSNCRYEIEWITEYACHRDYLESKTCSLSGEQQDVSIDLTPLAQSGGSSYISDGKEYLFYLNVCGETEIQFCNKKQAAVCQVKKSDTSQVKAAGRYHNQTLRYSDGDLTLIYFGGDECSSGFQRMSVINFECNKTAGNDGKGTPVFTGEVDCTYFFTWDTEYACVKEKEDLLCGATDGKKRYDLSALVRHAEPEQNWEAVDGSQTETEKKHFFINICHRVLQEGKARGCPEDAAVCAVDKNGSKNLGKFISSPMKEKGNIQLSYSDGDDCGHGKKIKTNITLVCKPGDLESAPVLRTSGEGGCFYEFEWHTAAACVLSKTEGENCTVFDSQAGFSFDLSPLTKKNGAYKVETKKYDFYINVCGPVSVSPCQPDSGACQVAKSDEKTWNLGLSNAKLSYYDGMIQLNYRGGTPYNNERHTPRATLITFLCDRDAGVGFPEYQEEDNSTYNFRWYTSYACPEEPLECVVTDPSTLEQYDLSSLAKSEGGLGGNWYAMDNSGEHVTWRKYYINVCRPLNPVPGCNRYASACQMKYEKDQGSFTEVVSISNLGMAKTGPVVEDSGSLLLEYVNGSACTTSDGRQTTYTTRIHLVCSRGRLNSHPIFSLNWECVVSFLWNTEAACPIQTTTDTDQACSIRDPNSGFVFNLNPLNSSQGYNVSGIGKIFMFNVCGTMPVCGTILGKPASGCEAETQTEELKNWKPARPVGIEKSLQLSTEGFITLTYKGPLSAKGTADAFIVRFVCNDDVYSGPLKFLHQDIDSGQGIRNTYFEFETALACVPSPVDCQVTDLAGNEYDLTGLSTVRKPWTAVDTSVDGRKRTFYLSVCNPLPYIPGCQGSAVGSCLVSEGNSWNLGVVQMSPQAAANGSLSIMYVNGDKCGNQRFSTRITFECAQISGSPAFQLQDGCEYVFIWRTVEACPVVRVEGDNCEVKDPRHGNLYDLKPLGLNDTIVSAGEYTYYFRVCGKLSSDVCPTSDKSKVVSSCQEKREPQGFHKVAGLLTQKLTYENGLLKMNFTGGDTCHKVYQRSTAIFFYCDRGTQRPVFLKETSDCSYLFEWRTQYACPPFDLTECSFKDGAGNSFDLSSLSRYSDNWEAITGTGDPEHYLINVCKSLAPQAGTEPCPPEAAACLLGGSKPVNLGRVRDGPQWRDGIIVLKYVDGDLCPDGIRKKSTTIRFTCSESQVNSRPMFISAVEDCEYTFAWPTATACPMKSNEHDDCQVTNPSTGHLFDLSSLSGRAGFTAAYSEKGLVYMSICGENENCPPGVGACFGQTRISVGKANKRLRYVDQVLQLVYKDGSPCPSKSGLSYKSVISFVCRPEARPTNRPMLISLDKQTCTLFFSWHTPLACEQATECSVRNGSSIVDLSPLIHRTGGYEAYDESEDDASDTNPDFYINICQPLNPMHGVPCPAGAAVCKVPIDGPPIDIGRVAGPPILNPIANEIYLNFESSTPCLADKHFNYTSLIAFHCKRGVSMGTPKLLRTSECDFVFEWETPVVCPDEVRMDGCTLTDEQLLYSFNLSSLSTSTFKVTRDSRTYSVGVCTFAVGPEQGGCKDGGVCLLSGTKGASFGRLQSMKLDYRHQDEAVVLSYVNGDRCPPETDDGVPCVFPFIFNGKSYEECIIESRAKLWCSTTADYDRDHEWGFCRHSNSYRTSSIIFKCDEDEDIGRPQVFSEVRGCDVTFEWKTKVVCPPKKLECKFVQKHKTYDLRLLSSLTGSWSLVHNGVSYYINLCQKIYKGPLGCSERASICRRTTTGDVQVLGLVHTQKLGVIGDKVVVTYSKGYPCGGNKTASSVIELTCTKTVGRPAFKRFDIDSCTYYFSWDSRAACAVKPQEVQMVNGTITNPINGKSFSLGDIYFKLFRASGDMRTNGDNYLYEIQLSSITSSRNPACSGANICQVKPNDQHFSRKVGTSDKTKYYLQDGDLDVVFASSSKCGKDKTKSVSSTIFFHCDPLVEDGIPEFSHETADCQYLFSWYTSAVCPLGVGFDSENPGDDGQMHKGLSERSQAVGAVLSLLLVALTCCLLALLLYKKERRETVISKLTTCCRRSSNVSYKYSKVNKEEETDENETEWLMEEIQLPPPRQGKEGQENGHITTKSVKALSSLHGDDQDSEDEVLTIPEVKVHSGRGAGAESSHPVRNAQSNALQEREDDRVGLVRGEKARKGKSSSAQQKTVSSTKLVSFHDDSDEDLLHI

commercially-available medicinal rhI2S (from UniProt P22304 26-550) (enzyme)
EC50 of cellular uptake (human fibroblasts, 18 hrs, rhI2S in lysate by ELISA) [1]: 1.46 µg/mL | Kd [2]: 3.32 nM

B1: recombinant human iduronate 2-sulfatase (rhI2S) of the present invention (Lot Nos. 1-7), P22304 26-550 (enzyme)
chain: SETQANSTTDALNVLLIIVDDLRPSLGCYGDKLVRSPNIDQLASHSLLFQNAFAQQAVCAPSRVSFLTGRRPDTTRLYDFNSYWRVHAGNFSTIPQYFKENGYVTMSVGKVFHPGISSNHTDDSPYSWSFPPYHPSSEKYENTKTCRGPDGELHANLLCPVDVLDVPEGTLPDKQSTEQAIQLLEKMKTSASPFFLAVGYHKPHIPFRYPKEFQKLYPLENITLAPDPEVPDGLPPVAYNPWMDIRQREDVQALNISVPYGPIPVDFQRKIRQSYFASVSYLDTQVGRLLSALDDLQLANSTIIAFTSDHGWALGEHGEWAKYSNFDVATHVPLIFYVPGRTASLPEAGEKLFPYLDPFDSASQLMEPGRQSMDLVELVSLFPTLAGLAGLQVPPRCPVPSFHVELCREGKNLLKHFRFRDLEEDPYLPGNPRELIAYSQYPRPSDIPQWNSDKPSLKDIKIMGYSIRTIDYRYTVWVGFNPDEFLANFSDIHAGELYFVDSDPLQDHNMYNDSQGGDLFQLLMP
modifications: here or on the partner: glycosylated; linked oligosaccharide chains containing mannose-6-phosphate residues, 3.74-5.38 mol/mol (average 4.37 mol/mol)
EC50 of cellular uptake (human fibroblasts, 18 hrs, rhI2S in lysate by ELISA) [3]: 0.452 µg/mL

B2: recombinant human iduronate 2-sulfatase (rhI2S) of the present invention (Lot Nos. 1-7) (enzyme)
chain: B1 chain
modifications: glycosylated; linked oligosaccharide chains containing mannose-6-phosphate residues, 3.74-5.38 mol/mol (average 4.37 mol/mol)
Kd [4]: 0.758 nM | Kd [5]: 1.23 nM | Kd [6]: 1.04 nM
